Reference: PMC6667744 (Pharmacology Research & Perspectives, 2019)

Biological target: Nanoluc‐RXFP2 (UniProt Q8WXD0 1-754)
Test: FRET or BRET

Sequence of Nanoluc‐RXFP2 (Q8WXD0 whole entry): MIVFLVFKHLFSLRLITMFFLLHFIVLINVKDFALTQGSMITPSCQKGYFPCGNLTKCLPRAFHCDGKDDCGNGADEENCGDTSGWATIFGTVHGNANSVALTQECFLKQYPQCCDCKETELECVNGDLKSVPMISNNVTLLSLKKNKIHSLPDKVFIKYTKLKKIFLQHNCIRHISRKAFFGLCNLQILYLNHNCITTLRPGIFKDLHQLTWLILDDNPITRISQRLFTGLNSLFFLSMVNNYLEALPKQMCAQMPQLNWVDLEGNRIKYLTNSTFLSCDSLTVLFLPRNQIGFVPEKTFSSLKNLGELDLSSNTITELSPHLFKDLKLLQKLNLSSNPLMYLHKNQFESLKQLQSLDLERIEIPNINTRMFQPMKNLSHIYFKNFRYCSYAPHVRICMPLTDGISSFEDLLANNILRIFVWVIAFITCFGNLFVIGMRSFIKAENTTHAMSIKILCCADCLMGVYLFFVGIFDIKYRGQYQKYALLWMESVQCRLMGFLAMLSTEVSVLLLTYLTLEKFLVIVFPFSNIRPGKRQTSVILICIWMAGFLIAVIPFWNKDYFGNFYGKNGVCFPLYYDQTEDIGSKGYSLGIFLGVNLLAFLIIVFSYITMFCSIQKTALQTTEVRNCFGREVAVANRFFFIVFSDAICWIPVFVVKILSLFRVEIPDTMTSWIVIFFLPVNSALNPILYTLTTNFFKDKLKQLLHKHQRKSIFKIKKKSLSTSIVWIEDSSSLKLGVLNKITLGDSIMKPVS

B1: mCitrine‐RXFP1 (receptor)
chain: QDVKCSLGYFPCGNITKCLPQLLHCNGVDDCGNQADEDNCGDNNGWSLQFDKYFASYYKMTSQYPFEAETPECLVGSVPVQCLCQGLELDCDETNLRAVPSVSSNVTAMSLQWNLIRKLPPDCFKNYHDLQKLYLQNNKITSISIYAFRGLNSLTKLYLSHNRITFLKPGVFEDLHRLEWLIIEDNHLSRISPPTFYGLNSLILLVLMNNVLTRLPDKPLCQHMPRLHWLDLEGNHIHNLRNLTFISCSNLTVLVMRKNKINHLNENTFAPLQKLDELDLGSNKIENLPPLIFKDLKELSQLNLSYNPIQKIQANQFDYLVKLKSLSLEGIEISNIQQRMFRPLMNLSHIYFKKFQYCGYAPHVRSCKPNTDGISSLENLLASIIQRVFVWVVSAVTCFGNIFVICMRPYIRSENKLYAMSIISLCCADCLMGIYLFVIGGFDLKFRGEYNKHAQLWMESTHCQLVGSLAILSTEVSVLLLTFLTLEKYICIVYPFRCVRPGKCRTITVLILIWITGFIVAFIPLSNKEFFKNYYGTNGVCFPLHSEDTESIGAQIYSVAIFLGINLAAFIIIVFSYGSMFYSVHQSAITATEIRNQVKKEMILAKRFFFIVFTDALCWIPIFVVKFLSLLQVEIPGTITSWVVIFILPINSALNPILYTLTTRPFKEMIHRFWYNYRQRKSMDSKGQKTYAPSFIWVEMWPLQEMPPELMKPDLFTYPCEMSLISQSTRLNSYS
BRET signal relative to that of Nanoluc-RXFP1 with mCitrine-RXFP1: ~75%
